The target in one experiment is T1, M2pd (Homo sapiens, UniProt P56817).
T1 construct: Pro-memapsin 2 residues start at residue Ala-16; The two recombinant pro-memapsin 2s have different C-terminal lengths; Clone T1 ends at Thr-456; made in house
Put plainly: Hydrolysis of synthetic peptide substrates by M2pd, kinetics by HPLC. Format: biochemical. The source says:
A synthetic peptide derived from this site (SEVKM/DAEFR) (SEQ ID NO:4) was hydrolyzed by M2pd at the beta-secretase site (marked by /). A second peptide (SEVNL/DAEFR) (SEQ ID NO:5) derived from the APP beta-secretase site and containing the ‘Swedish mutation’ (Mullan, M. et al., Nature Genet. 2:340-342 (1992)), known to elevate the level of alpha-beta production in cells (Citron, M. et al., Nature […] (1992)), was hydrolyzed by M2pd with much higher catalytic efficiency. Both substrates were optimally cleaved at pH 4.0. A peptide derived from the processing site of presenilin 1 (SVNM/AEGD) (SEQ ID NO:6) was also cleaved by M2pd with less efficient kinetic parameters. […]
Incubation in 0.1 M sodium acetate, pH 4.0, for 16 h at 22° C. auto-catalytically converted pro-M2pd to M2pd. […] For kinetic studies, the identified HPLC (Beckman System Gold) product peaks were integrated for quantitation. The Km and kcat values for presenilin 1 and Swedish APP peptides (Table 1) were measured by steady-state kinetics. The individual Km and kcat values for APP peptide could not be measured accurately by standard methods, so its kcat/Km value was measured by competitive hydrolysis of mixed substrates against presenilin 1 peptide (Fersht, A. “Enzyme Structure and Mechanism”, 2nd Ed., W.H. Freeman and Company, New York. (1985)).

The test system of experiment [1] is APP cleavage by M2 in HeLa cells. The experiment in a line: APP cleavage in HeLa cells co-transfected with APP and M2, pulse-chase and immunoprecipitation. Format: cell-based, human. The conditions noted are these: Bafilomycin A1 in the media.

T1 sequence (P56817 14-454): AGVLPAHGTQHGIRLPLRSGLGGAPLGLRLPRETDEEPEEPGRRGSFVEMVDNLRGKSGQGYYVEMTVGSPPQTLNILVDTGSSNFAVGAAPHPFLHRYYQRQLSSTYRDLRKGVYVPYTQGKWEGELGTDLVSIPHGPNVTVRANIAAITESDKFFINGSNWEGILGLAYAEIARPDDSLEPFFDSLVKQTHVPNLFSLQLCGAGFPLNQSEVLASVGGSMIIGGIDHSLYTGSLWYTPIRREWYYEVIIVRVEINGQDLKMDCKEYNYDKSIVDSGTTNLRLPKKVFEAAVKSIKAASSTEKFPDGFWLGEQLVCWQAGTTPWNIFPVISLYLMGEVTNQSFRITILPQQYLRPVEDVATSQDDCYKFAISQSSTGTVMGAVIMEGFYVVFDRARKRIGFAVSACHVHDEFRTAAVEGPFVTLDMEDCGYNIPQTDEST

For KGGVVIATVIVK, the “cleavage by M2pd” value with M2pd is given as “not cleaved”.

As to `CO/C1=C\C(C)=C\[C@@H](C)[C@@H](O)[C@@H](C)C/C(C)=C/C=C/[C@H](OC)[C@@H]([C@@H](C)[C@@H](O)[C@H](C)[C@@]2(O)C[C@@H](O)[C@H](C)[C@@H](C(C)C)O2)OC1=O` [Bafilomycin A1], in experiment [1], the “production of APP fragments beta N- and beta C-” value is recorded as “abolished the production of both APP fragments”.

These data come from patent publication US7829669B2, “Catalytically active recombinant memapsin and methods of use thereof” (Oklahoma Medical Research Foundation, priority 1999, dated 2010).
